Experimental data from IntAct's records for PubMed 34830280.

B1: Centrosome-associated zinc finger protein Cp190 (Drosophila melanogaster (Fruit fly)), Q24478 (parent)
chain: MGEVKSVKVDNWGVFFLQKLQNFFNKTDYCDLTLQFRDNSQLKVHRLVLSACTDYFNVLEQTCEIVDDALIMPNEFQADVVVPIVNFMYTGTLEFELKMYGKLLRTAKEMNMTVLLKLLEAHRRTMENVNRQQRPPSPKGIRRRTVGQPSSGLPQQRVLGPSPQSRNVATPIAQRANTQRGSTGNTMSRTSGGSNRSPYGDSSNVKQEPTSPFEQLRKGYNNNKRPAQTSLLSPPSKKPSLEEVKEFAEQQRMRKQIAAEYGDNDPEYDGGMLYDDVHAGDDDDDDMPPQPSTSKQQSPQGTQTQLEHGSTTIILKQDSPSQTPTIIVKDSSNAKLNHTKIIAEVLRQYPHIVKGHKNIKLKIMPNTPAAPTEKSAPATVKPPANQSSATTSPHKKLHVSFKADKSTPLITAQQKAASSQQKSGTSQTTGNQGTGANPPANTAAAQKRRIDSKTMHALIAQGAENTTGPWLCLRCGVNGRPISIPSYRGFRRHLINTHKETIDPALCEHCGWRSVNNRELHFHMYMEHQTKSLLYTFAECALCNQSYRTKGELEAHINEVHTDDNKQQCIYCNKVFEQELQLYRHMKSYHKEQALEDGIIDETDEEFLGSQDEEEEAEGDEEQEPEQTGKVRILSDISLPATSAITVQQAQQEQLQEEDVEQVQQEVKFVGADGNEVELTDEQRKEILSQLNQQQAGATAGGVVMVLSEPEAEHVKQETDEKSLAGTEEEYDDSQIYSELGAADSVESAKKNIADESKESIDNLEWAENLIAESEEQSNKEPKSDKPRDDISEKLKELTGDWTEDENDDDVDDKPATAELASELANKDPEPTVHEEEDDIDLALQSLHKGPEEATEEKASEESVTSADDAVDAVPNINSQPEKMDVDSEAADEKASKAEVQIKKEAELENDQEEFIKEDSPIPHSDSVAELREAVTASEGEDDVHLEADNIRKELLDELIAEAEKPDQEKDIVQSEENATTEALDRSVTDEDDLVPPTQVSTEQMEIDEPAAEKAAENNEDTRTADEKEAVEDKPNQTQDVTTAEKPTLESAKAGDEATSGEAASVDKVKSLISEWGDDDEDEDENGVSAAAKEEL
partner: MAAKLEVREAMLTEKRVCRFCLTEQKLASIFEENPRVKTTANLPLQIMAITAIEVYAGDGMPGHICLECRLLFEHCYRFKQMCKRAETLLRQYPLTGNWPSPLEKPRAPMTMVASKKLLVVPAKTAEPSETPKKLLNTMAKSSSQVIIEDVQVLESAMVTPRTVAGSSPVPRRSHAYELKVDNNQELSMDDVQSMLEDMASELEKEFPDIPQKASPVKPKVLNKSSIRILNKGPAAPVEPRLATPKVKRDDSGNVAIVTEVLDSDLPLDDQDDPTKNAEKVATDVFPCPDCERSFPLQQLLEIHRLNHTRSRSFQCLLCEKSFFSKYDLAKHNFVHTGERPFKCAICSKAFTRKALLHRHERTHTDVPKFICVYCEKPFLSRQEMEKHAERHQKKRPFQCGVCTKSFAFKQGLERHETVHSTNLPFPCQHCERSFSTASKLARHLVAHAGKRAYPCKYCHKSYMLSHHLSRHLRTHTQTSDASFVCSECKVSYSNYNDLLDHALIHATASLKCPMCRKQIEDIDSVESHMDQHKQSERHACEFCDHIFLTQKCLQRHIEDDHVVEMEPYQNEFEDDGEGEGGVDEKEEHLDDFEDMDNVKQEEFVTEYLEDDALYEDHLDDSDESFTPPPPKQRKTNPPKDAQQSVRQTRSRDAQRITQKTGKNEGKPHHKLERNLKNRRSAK
B2: Centrosome-associated zinc finger protein Cp190 (Drosophila melanogaster (Fruit fly)), Q24478 (parent)
chain: B1 chain
partner: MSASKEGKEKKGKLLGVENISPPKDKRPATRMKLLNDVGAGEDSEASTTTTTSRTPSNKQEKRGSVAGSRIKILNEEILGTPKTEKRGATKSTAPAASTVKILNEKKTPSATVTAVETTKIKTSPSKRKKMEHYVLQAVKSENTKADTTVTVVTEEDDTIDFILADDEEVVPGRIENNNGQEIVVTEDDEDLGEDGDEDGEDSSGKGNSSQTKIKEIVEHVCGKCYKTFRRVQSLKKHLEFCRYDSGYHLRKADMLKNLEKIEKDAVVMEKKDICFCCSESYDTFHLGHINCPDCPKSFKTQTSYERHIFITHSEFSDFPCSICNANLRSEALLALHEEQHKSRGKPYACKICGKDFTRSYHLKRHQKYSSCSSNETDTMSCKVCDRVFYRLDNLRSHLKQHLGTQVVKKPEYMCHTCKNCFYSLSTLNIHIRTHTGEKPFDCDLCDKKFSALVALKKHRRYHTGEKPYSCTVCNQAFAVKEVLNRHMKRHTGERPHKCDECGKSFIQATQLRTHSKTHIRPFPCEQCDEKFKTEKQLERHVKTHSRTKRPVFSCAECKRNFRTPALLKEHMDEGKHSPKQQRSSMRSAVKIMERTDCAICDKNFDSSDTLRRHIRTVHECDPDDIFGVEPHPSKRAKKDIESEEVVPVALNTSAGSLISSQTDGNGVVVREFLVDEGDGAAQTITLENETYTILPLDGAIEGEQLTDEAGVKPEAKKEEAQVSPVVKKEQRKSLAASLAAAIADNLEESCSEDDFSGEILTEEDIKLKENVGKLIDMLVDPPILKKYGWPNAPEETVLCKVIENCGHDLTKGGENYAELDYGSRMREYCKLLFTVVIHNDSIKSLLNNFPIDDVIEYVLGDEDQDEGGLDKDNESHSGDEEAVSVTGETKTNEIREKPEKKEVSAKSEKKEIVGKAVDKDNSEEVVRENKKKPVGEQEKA

Variants of: B1
Settings: with pita_drome pita

Row | Variant | effect of a mutation on the interaction
1 | K117S | with no effect
2 | V114A | with no effect
3 | V114N | with no effect
4 | K19A | with no effect
5 | F15A | with no effect
6 | L118A | with no effect

Variants of: B1
Settings: with pita_drome pita
Remark: another data set of the same source

Row | Variant | effect of a mutation on the interaction
7 | K117S | disrupting interaction strength
8 | V114A | disrupting interaction strength
9 | V114N | disrupting interaction strength
10 | K19A | disrupting interaction strength
11 | F15A | disrupting interaction strength

Variants of: B1
Settings: with pita_drome pita
Remark: another data set of the same source

Row | Variant | effect of a mutation on the interaction
12 | L118A | disrupting interaction strength
13 | V7A | disrupting interaction strength

Variants of: B1
Settings: with pita_drome pita
Remark: another data set of the same source

Row | Variant | effect of a mutation on the interaction
14 | V7A | with no effect

Variants of: B2
Settings: with suhw_drome su(Hw)

Row | Variant | effect of a mutation on the interaction
15 | V7A | with no effect
16 | K19A | with no effect
17 | V114A | with no effect
18 | V114N | with no effect
19 | K117S | with no effect

Variants of: B2
Settings: with suhw_drome su(Hw)
Remark: another data set of the same source

Row | Variant | effect of a mutation on the interaction
20 | V7A | disrupting interaction strength

Variants of: B2
Settings: with suhw_drome su(Hw)
Remark: another data set of the same source

Row | Variant | effect of a mutation on the interaction
21 | K19A | disrupting interaction strength
22 | V114A | disrupting interaction strength
23 | V114N | disrupting interaction strength
24 | K117S | disrupting interaction strength
25 | F15A | disrupting interaction strength
26 | L118A | disrupting interaction strength

Variants of: B2
Settings: with suhw_drome su(Hw)
Remark: another data set of the same source

Row | Variant | effect of a mutation on the interaction
27 | F15A | with no effect
28 | L118A | with no effect
